± gives the standard deviation.

A short description of the data set: protein stability index of a GFP-peptide fusion (GPS, HEK-293T) (PSI 1-6); higher = more stable.
[1] abbreviates: treatment: DMSO, c terminus: a fixed tail appended.
The mark [2] stands for this setting: treatment: MLN4924 1 uM, 8 h, c terminus: a fixed tail appended.
[3] abbreviates: treatment: DMSO, c terminus: native.
The mark [4] stands for this setting: treatment: MLN4924 1 uM, 8 h, c terminus: native.
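Further: 24-mer peptide tiles fused after GFP, lentivirally expressed, FACS-sorted into six equal bins by GFP/DsRed ratio, decoded by Illumina sequencing, PSI is the read-weighted mean bin number.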

SMVDLTSVTLEDVTPKKSPPPKTN [FAN1]: the protein stability index under setting [1] is 5.06 ± 0.12 and the protein stability index under setting [2] came to 4.9 ± 0.27.
For the sequence LQDLQVTDILPQMITLSEAYIQIW [USP39], the protein stability index by setting is: under setting [1], 2.58 ± 0.54; under setting [2], 2.55 ± 0.77.
On the same counts, the results for NVVTIGLAFFPFLHRLFREKSLDQ [PHTF1] are 2.24 ± 0.32 and 2.3 ± 0.47.
On the same counts, the results for RSLNVFVKEDDKLIFHRHPVAQST [SPSB1] are 3.15 ± 0.18 and 3.36 ± 0.26.
With NGFGLVEDSAQNCFALIPKAPKKD [EFHC1], the protein stability index is 4.75 ± 0.34 under setting [1] and 4.74 ± 0.13 under setting [2].
The corresponding values for WLPYLYTLQGLYLVYHPVQLSTPH [DHCR7] are 3 ± 0.25 and 2.91 ± 0.34.
As for QDLCCRAIVSCTPVHLIDKLPLPV [RAB40C], the protein stability index reads like this: under setting [1], 2.4 ± 0.24; under setting [2], 2.16 ± 0.18.
HRPSLNSVSLQINCQSVAQMNLLQ [DLC1]: the protein stability index by setting is: under setting [1], 2.4 ± 0.4; under setting [2], 2.52 ± 0.32.
Turning to QVANSAFVERVRKRGFEVVYMTEP [HSP90AB1], the protein stability index was 2.49 ± 0.4 under setting [1] and 2.64 ± 0.24 under setting [2].
As for KGSFGKVCIVQKNDTKKMYAMKYM [STK32A], the protein stability index reads like this: under setting [1], 2.49 ± 0.41; under setting [2], 2.41 ± 0.23.
On the same counts, the results for KVVECLDHARGKSQVALKIIRNVG [CLK3] are 2.24 ± 0.21 and 2.22 ± 0.36.
The corresponding values for QEAAERESKLLRDLSAANEKNLLL [LRRC45] are 4.37 ± 0.14 and 4.19 ± 0.13.
On the same counts, the results for ACRFTKCLRVGMLKEGVRLDRVRG [ESRRA] are 2.31 ± 0.17 and 2.25 ± 0.19.
VGHNHTYNMAPSALDSADLPPPSA [NFE2L1] came in with a protein stability index under setting [1] of 4.61 ± 0.16 and a protein stability index under setting [2] of 4.43 ± 0.36.
The corresponding values for SAVAMYMLYEKQKQQNVAHCMLVS [ZBED1] are 2.92 ± 0.54 and 2.74 ± 0.53.
For the sequence EQASAFQEQEIDGKSLLLMTRNDV [SAMD13], the protein stability index is 4.74 ± 0.12 under setting [1] and 4.78 ± 0.14 under setting [2].
The corresponding values for FLVGLLFVQRSGNYFVTMFDDYSA [SLC6A17] are 3.05 ± 0.76 and 3.27 ± 0.38.
On to TIVKARDKLYHPECFMCSDCGLNL [PDLIM4], for which the protein stability index under setting [1] came to 2.19 ± 0.44 and the protein stability index under setting [2] came out at 2.42 ± 0.19.
The corresponding values for SDLLSEFKKHDADKVGLITLSDWA [PPEF2] are 3.35 ± 0.47 and 3.44 ± 0.27.
On to PGYPKMIAHDFPGIGHKVDAVFMK [MMP1], for which the protein stability index worked out at 2.75 ± 0.17 under setting [1] and 3.02 ± 0.33 under setting [2].
On to KFENLCKLMKEILDKKVEKVTISN [HSP90AB1], for which the protein stability index under setting [2] stood at 2.75 ± 0.38.
On to IESERALISQCGKPVVNVSYRPAY [DUSP5], for which the protein stability index amounted to 2.6 ± 0.5 under setting [1] and 2.82 ± 0.13 under setting [2].
Consider GQCLDSTDQLEFTVEPRLLVADLL [RTN2], for which the protein stability index was 2.91 ± 0.2 under setting [1] and 3 ± 0.26 under setting [2].
The corresponding values for FGDVSERLALRQRLKCRSFKWYLE [GALNT9] are 2.29 ± 0.59 and 2.54 ± 0.37.
On to IVGYAFHFPHLLSPQIQRSAHRAL [TMEM175], for which the protein stability index by setting is: under setting [1], 2.23 ± 0.24; under setting [2], 2.54 ± 0.51.
The corresponding values for AQSRLEDPGADSEKSTVVEGGEVR [DLX1] are 5.42 ± 0.28 and 5.45 ± 0.37.
On the same counts, the results for MEGLEENGGVVQVGELLPCKICGR [ZC2HC1A] are 4.13 ± 0.21 and 4.26 ± 0.48.
On the same counts, the results for AIGRVRVLEEQLVKAKEQIENYKK [FUT8] are 4.03 ± 0.16 and 4.28 ± 0.27.
As for KKHAAYAWPFYKPVDAEALELHDY [BRD3], the protein stability index under setting [1] is 2.97 ± 0.39 and the protein stability index under setting [2] came out at 2.96 ± 0.38.
The corresponding values for QSPVSPQPPAITQVHRQGERRREL [SMTNL2] are 5.26 ± 0.14 and 5.12 ± 0.42.
On the same counts, the results for IEIVHISTVQILTEGFPPGGGNAR [ZFYVE21] are 2.51 ± 0.67 and 2.72 ± 0.74.
The corresponding values for CRLTHIPAYKVSGDKNEEQVLNAI [ZER1] are 3.5 ± 0.42 and 3.42 ± 0.3.
Take GGTTGYIYSTDLHKLDLNTREWTQ [KLHDC10]: the protein stability index is 2.44 ± 0.3 under setting [1] and 2.47 ± 0.43 under setting [2].
Turning to SDLLDEKEIAKNLIQPINHTTLQC [FEM1C], the protein stability index under setting [1] is 3.83 ± 0.25 and the protein stability index under setting [2] amounted to 4.03 ± 0.39.
DGLLGDNQIMPKTGFLIIILAIIA [MAGEA6]: the protein stability index runs as follows: under setting [1], 2.86 ± 0.65; under setting [2], 2.12 ± 0.46.
Take SRHCPQLPPPCAALWCSGHLNGHA [ADAMTS4]: the protein stability index was found to be 2.48 ± 0.3 under setting [1] and 2.48 ± 0.21 under setting [2].
On the same counts, the results for RELLEFTHMYLQSDDEMELEETEP [P3H4] are 4.98 ± 0.18 and 5.15 ± 0.22.
On the same counts, the results for EVKPVLEVLVGKTIEQSLLEVMEE [RSPH3] are 2.48 ± 0.39 and 2.64 ± 0.48.
On the same counts, the results for QLQSLCRGLGLGGRRLKSPQAPDP [FANCE] are 3.02 ± 1 and 3.16 ± 0.74.
With DLVFVIDGSKSLGEENFEVVKQFV [MATN2], the protein stability index runs as follows: under setting [1], 2.38 ± 0.35; under setting [2], 2.44 ± 0.49.
Consider RRCRRCVCALCPVLGAHRGHPVGL [TRIM14], for which the protein stability index under setting [1] came out at 2.54 ± 0.33 and the protein stability index under setting [2] came out at 2.59 ± 0.38.
Regarding EEPELVFTLGDCDVIQALDLSVPL [FKBP8], the protein stability index is, setting by setting: under setting [1], 3.66 ± 0.28; under setting [2], 3.48 ± 0.41.
On to SRLLIFPLYICCNFLYISPEKKN [GMCL1], for which the protein stability index under setting [3] was found to be 2.97 ± 0.27 and the protein stability index under setting [4] stood at 2.71 ± 0.43.
As for EEVDTGAVNLIESGACGAFVHGLE [INTS4], the protein stability index stood at 4.34 ± 0.39 under setting [1] and 4.85 ± 0.46 under setting [2].
As to SNHSAQDSAVENLLLLSKAKLVPS [IKZF1], the protein stability index was determined as 3.81 ± 0.22 under setting [1] and 3.95 ± 0.32 under setting [2].
In the case of TSWSQHCPWEPQKQPPWEFLQVLE [SPAG8], the protein stability index under setting [1] is 2.31 ± 0.13 and the protein stability index under setting [2] was 2.55 ± 0.29.
Regarding SEEAVREVHRLIEGKAPIISGVTK [TPPP], the protein stability index was determined as 4.44 ± 0.29 under setting [1] and 4.72 ± 0.14 under setting [2].
The corresponding values for AVSAMKCGLLPISPEALSLGEVAY [ADD1] are 2.31 ± 0.3 and 2.41 ± 0.066.
The corresponding values for SIVILDNSPGAYRSHPDNAIPIKS [CTDNEP1] are 2.82 ± 0.27 and 2.91 ± 0.57.
On the same counts, the results for ERYQKIGDTKRATPIEVLCENFPE [CSNK1G3] are 4.59 ± 0.11 and 4.44 ± 0.28.
As for LEGKTFYSKKDRPLCKSHAFSHV [PDLIM7], the protein stability index runs as follows: under setting [3], 3.36 ± 0.44; under setting [4], 3.83 ± 0.75.
Take EGTLGYAIGGTYLGPAFRGLKGRT [SPSB2]: the protein stability index runs as follows: under setting [1], 3.14 ± 0.1; under setting [2], 3.06 ± 0.32.
As for TTIKRKREDDKLVVECVMKGVTST [FABP4], the protein stability index reads like this: under setting [1], 3.9 ± 0.52; under setting [2], 3.9 ± 0.19.
On the same counts, the results for KLEKSIDSYYRLVIHRALDREQVS [PCDHGA10] are 2.55 ± 1 and 2.48 ± 0.84.
The sequence PRKRRRNGNEEDNHLPPQTKRSSR [FAM104A] gave a protein stability index under setting [1] of 5.34 ± 0.16 and a protein stability index under setting [2] of 5.36 ± 0.16.
As to KTSVEKANAQIQILTRSWEEVSTL [CD207], the protein stability index is 3.48 ± 0.14 under setting [1] and 3.77 ± 0.26 under setting [2].
The corresponding values for LDSIIDDRVILSSSTSCLMPSKLF [CRYL1] are 2.71 ± 0.38 and 2.77 ± 0.21.
On the same counts, the results for NYTSRVWEYSSSIQNSDNDLPVVQ [TRIM29] are 3.88 ± 0.26 and 4.02 ± 0.32.
On the same counts, the results for NENPNNFQILLLSDPSTIEASNFQ [PNLIPRP1] are 3.33 ± 0.36 and 3.44 ± 0.5.
Consider NELTLNEKNFFPEYNYDWWEKKPF [CHGB], for which the protein stability index under setting [1] was determined as 2.73 ± 0.24 and the protein stability index under setting [2] was 3 ± 0.35.
Take QQQQAMSFAILRIIRLVRVFRIFK [KCNA4]: the protein stability index stood at 2.71 ± 0.24 under setting [1] and 3.01 ± 0.26 under setting [2].
The corresponding values for SLCTHLIYAFAGMTNHQLSTTEWN [CHIT1] are 3.43 ± 0.33 and 3.27 ± 0.38.
In the case of CPAELFTNTRSDLDVFGRGDNISD [LUC7L3], the protein stability index reads like this: under setting [1], 4.38 ± 0.26; under setting [2], 4.65 ± 0.19.
With RQAIFPDTWTLTEEHGLQQERPRP [PXN], the protein stability index by setting is: under setting [1], 4.43 ± 0.25; under setting [2], 4.25 ± 0.28.
On to KDLQKEQKTLQVKCQHYKKKRTEQ [CEP70], for which the protein stability index was found to be 4.92 ± 0.31 under setting [1] and 4.87 ± 0.032 under setting [2].
KNKPKKMGHIKPDLIDVDLIRGST [PHTF1] displayed a protein stability index under setting [1] of 3.8 ± 0.28 and a protein stability index under setting [2] of 4.04 ± 0.2.
The corresponding values for AVPTDEARAFAEKNNLSFIETSAL [RAB11B] are 3.31 ± 0.31 and 3.47 ± 0.54.
The corresponding values for VSLLENNIYVHDLLTFQQITTVSK [VPS39] are 2.97 ± 0.35 and 2.41 ± 0.49.
For QQRSKDLESRQRSLEQANRSLQLR [TFE3], the protein stability index runs as follows: under setting [1], 4.76 ± 0.062; under setting [2], 4.655 ± 0.041.
YQELNYRSVEEAPVYSVPQLLSAM [SCNN1D] gave a protein stability index under setting [1] of 2.49 ± 0.34 and a protein stability index under setting [2] of 2.69 ± 0.29.
On the same counts, the results for DSGQNAWLSYRLLKASEPGLFAVG [PCDHGA10] are 2.14 ± 0.09 and 2.13 ± 0.063.
Regarding DSSSSCSDHCITSSDMMDSSSFSN [VDR], the protein stability index by setting is: under setting [1], 4.94 ± 0.28; under setting [2], 5.01 ± 0.27.

The values are drawn from the supplement of paper PMC10567573.
